This data set has as its target GST-CjWRKY1 (Coptis japonica, UniProt A0ZT25 1-185). Put plainly: EMSA; poly(dI-dC) 0.05 ug/ul; 3 ug protein, 20 fmol probe; EMSA: 1x LightShift binding buffer, 1 mM MgCl2, 0.5 mM EDTA, 0.05 ug/ul poly(dI-dC), 20 min at 4 C; pH not stated. The settings on record: protein: recombinant; tags: GST (N-terminal, pGEX-6P-1); label: biotin (sense and antisense oligonucleotides). (In EMSA bound probe runs differently from free probe, usually more slowly.)

Sequence of GST-CjWRKY1 (A0ZT25 entry or part of it): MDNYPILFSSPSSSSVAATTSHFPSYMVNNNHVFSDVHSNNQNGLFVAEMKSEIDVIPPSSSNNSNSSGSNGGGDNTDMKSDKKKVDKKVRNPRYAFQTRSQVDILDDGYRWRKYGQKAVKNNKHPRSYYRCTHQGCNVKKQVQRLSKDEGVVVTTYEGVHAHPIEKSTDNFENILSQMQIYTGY

B1: 3x W-box probe (W2 of CYP80B2 promoter) (dsDNA)
DNA 1: CTGCTGACTAGCTGACTAGCTGACTAGATGG
DNA 2: CCATCTAGTCAGCTAGTCAGCTAGTCAGCAG
B1: the binding result is listed as “binds”.

Source of the values: paper PMC5009119, “Characterization of the Promoter Region of Biosynthetic Enzyme Genes Involved in Berberine Biosynthesis in Coptis japonica”.
